B1: G2 and S phase-expressed protein 1 (Homo sapiens), Q9NYZ3 (parent)
chain: MEGGGGRDEPSACRAGDVNMDDPKKEDILLLADEKFDFDLSLSSSSANEDDEVFFGPFGHKERCIAASLELNNPVPEQPPLPTSESPFAWSPLAGEKFVEVYKEAHLLALHIESSSRNQAAQAAKPEDPRSQGVERFIQESKLKINLFEKEKEMKKSPTSLKRETYYLSDSPLLGPPVGEPRLLASSPALPSSGAQARLTRAPGPPHSAHALPRESCTAHAASQAATQRKPGTKLLLPRAASVRGRSIPGAAEKPKKEIPASPSRTKIPAEKESHRDVLPDKPAPGAVNVPAAGSHLGQGKRAIPVPNKLGLKKTLLKAPGSTSNLARKSSSGPVWSGASSACTSPAVGKAKSSEFASIPANSSRPLSNISKSGRMGPAMLRPALPAGPVGASSWQAKRVDVSELAAEQLTAPPSASPTQPQTPEGGGQWLNSSCAWSESSQLNKTRSIRRRDSCLNSKTKVMPTPTNQFKIPKFSIGDSPDSSTPKLSRAQRPQSCTSVGRVTVHSTPVRRSSGPAPQSLLSAWRVSALPTPASRRCSGLPPMTPKTMPRAVGSPLCVPARRRSSEPRKNSAMRTEPTRESNRKTDSRLVDVSPDRGSPPSRVPQALNFSPEESDSTFSKSTATEVAREEAKPGGDAAPSEALLVDIKLEPLAVTPDAASQPLIDLPLIDFCDTPEAHVAVGSESRPLIDLMTNTPDMNKNVAKPSPVVGQLIDLSSPLIQLSPEADKENVDSPLLKF

Variants of: B1
Settings: with plk1_human PLK1, P53350
plk1_human PLK1, P53350, sequence (P53350 whole entry): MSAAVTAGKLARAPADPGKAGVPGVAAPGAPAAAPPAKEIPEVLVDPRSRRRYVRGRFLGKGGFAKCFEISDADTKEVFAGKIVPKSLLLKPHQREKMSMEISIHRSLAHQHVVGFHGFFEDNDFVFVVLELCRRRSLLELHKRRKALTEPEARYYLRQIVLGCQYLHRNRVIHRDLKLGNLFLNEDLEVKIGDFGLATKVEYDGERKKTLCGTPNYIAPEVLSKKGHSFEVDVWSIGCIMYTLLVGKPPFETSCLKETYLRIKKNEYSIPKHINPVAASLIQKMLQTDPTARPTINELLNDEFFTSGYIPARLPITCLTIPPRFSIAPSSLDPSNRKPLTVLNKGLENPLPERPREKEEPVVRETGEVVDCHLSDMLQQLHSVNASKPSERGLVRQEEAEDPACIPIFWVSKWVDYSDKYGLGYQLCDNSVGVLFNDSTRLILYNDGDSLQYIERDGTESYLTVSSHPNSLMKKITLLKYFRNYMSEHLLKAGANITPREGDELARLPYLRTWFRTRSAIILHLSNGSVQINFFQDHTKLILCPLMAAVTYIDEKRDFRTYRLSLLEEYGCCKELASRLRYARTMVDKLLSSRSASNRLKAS

Variant	effect of a mutation on the interaction
S242A	disrupting interaction

Variants of: B1
Settings: with plk1_human PLK1, P53350
Remark: another data set of the same source

Variant	effect of a mutation on the interaction
S454A	disrupting interaction

Source: IntAct's records for PubMed 20577264
